The values below come from PMC2887959.

Read-outs that look alike come from different tables or passages of the source.

What all share (test): fluorescence anisotropy
A general note: In fluorescence polarisation assays a small probe gives low polarisation when free and higher when bound to something large.

Data set [1] deals with T1, IN deltaC (IN1-213) (HIV-1, UniProt P04585 1148-1360).
Data set [2] addresses T2, IN catalytic core CC (IN50-213) (HIV-1, UniProt P04585 1197-1360).
Data set [3] has as its target T1, IN deltaC (IN1-213). This is another data set of the same source.
Data set [4] deals with T2, IN catalytic core CC (IN50-213). This is another data set of the same source.

B1: U5A/U5B (dsDNA)
DNA 1: GTGTGGAAAATCTCTAGCAGT
DNA 2: ACTGCTAGAGATTTTCCACAC
For the molecule B1, the Kd (usually the equilibrium constant for the complex coming apart) in data set [1] was found to be 60 ± 4 nM; in data set [2] it was 53 ± 13 nM; in data set [3] it was 64 ± 8 nM; in data set [4] it was 61 ± 10 nM.
